{"source": "patent US20080274096A1", "about": "“Fusion Proteins Having a Modulated Half-Life in Plasma” (ASTRAZENECA AB, priority 2005, published 2008)", "molecules": {"B1": {"name": "Neprilysin: Aβ-degrading Zn-metallopeptidase; soluble extracellular domain (SEQ ID NO 1-4), commercial (R&D Systems) or produced in-house (protein, UniProt P08473 52-750, looked up)", "extracellular domain": "YDDGICKSSDCIKSAARLIQNMDATTEPCTDFFKYACGGWLKRNVIPETSSRYGNFDILRDELEVVLKDVLQEPKTEDIVAVQKAKALYRSCINESAIDSRGGEPLLKLLPDIYGWPVATENWEQKYGASWTAEKAIAQLNSKYGKKVLINLFVGTDDKNSVNHVIHIDQPRLGLPSRDYYECTGIYKEACTAYVDFMISVARLIRQEERLPIDENQLALEMNKVMELEKEIANATAKPEDRNDPMLLYNKMTLAQIQNNFSLEINGKPFSWLNFTNEIMSTVNISITNEEDVVVYAPEYLTKLKPILTKYSARDLQNLMSWRFIMDLVSSLSRTYKESRNAFRKALYGTTSETATWRRCANYVNGNMENAVGRLYVEAAFAGESKHVVEDLIAQIREVFIQTLDDLTWMDAETKKRAEEKALAIKERIGYPDDIVSNDNKLNNEYLELNYKEDEYFENIIQNLKFSQSKQLKKLREKVDKDEWISGAAVVNAFYSSGRNQIVFPAGILQPPFFSAQQSNSLNYGGIGMVIGHEITHGFDDNGRNFNKDGDLVDWWTQQSASNFKEQSQCMVYQYGNFSWDLAGGQHLNGINTLGENIADNGGLGQAYRAYQNYIKKNGEEKLLPGLDLNHKQLFFLNFAQVWCGTYRPEYAVNSIKTDVHSPGNFRIIGTLQNSAEFSEAFHCRKNSYMNPEKKCRVW", "modifications": "extracellular domain"}}, "key": {"Ab1-42": {"tested_on": "Ab1-42", "details": "purified Neprilysin; Howell et al., 1995; cited from earlier work"}, "[1]": {"tested_on": "amyloid β peptide1-40 (Aβ40)", "assay": "Degradation of Aβ1-40 in guinea pig plasma by neprilysin", "format": "biochemical", "experimental": "(§1) Degradation of amyloid β peptide1-40 (Aβ40) and amyloid β peptide1-42 (Aβ42) by neprilysin was investigated using heparinized plasma from male Dunkin Hartley guinea pigs, weighing 250-300 g (HBLidköping ka). Blood was withdrawn from anaesthetized guinea pigs by heart puncture. The blood were collected into prechilled heparin-plasma tubes and centrifuged for 10 min at 4° C. at 3000×g within 20 minutes of sampling. Plasma samples were transferred to pre-chilled polypropylene tubes and immediately frozen on dry ice and stored at −70° C. prior to use. The experiments were performed on a pool of plasma from 5-6 guinea pigs. […] A final concentration of 4.7 mM EDTA was added into the tubes before the amount of Aβ1-40 or Aβ1-42 was analyzed by using commercial ELISA kits obtained from Biosource (Aβ1-40) or Innogenetics (Aβ1-42)."}, "amyloid β1-40 peptide": {"tested_on": "amyloid β1-40 peptide", "assay": "Degradation of amyloid β1-40 peptide by soluble Neprilysin in a buffer system", "format": "biochemical", "details": "Neprilysin 1.8 μg/ml; Amyloid β1-40 peptide (1 nM); 3 hours incubation at 37° C.", "experimental": "Following incubation, 50 μl of antibodies solution containing anti-Aβ40 (final concentration 0.125 μg/ml; Biosource) and Biotinylated 6E10 (final concentration 0.125 μg/ml; Signet) antibodies was added to each well. Plate was incubated at RT for 3 h. Following incubation, 50 μl of detection mixture of Dynabeads M280 (Dynal Biotech ASA) and secondary antibody Ru-GαR (final concentration 0.132 μg/ml) was added to all wells. Plate was incubated on a shaker at RT for 1 h and results were recorded on IGEN/Bio […]8 analyser. Amyloid β1-40 peptide degradation by Neprilysin was calculated as a percentage of Amyloid β1-40 peptide left after incubation in the presence of Neprilysin compared to the amyloid β1-40 peptide concentration in the absence of Neprilysin."}, "[2]": {"tested_on": "fluorogenic peptide substrate V-Mca-Arg-Pro-Gly-Phe-Ser-Ala-Phe-Lys(Dnp)-OH", "assay": "Neprilysin enzyme activity FRET assay", "format": "biochemical", "details": "purification with addition of 200 μM ZnCl2 versus without", "experimental": "Neprilysin is affinity purified directly from the culture supernatants. Soluble Neprilysin is purified using biotinylated anti-neprilysin antibody (R&D Systems) bound to […] sepharose (GE Healthcare). 14 μg biotinylated anti-neprilysin antibody (R&D systems) was added to 140 μl streptavidin sepharose slurry (GE Healthcare) and incubated during gentle mixing for 2 hours, in room temperature. The sepharose was washed twice and resuspended in 140 μl PBS. The sepharose slurry with bound anti-neprilysin antibody, was added to 10 ml culture supernatant and the sample was incubated for 5 hours at 4° C. After incubation, the sepharose was washed once with PBS and resuspended in 1200 μl 50 mM Tris-HCl, pH 7.5, 150 mM NaCl. […] The sepharose was pelleted and the concentration of purified protein in the supernatant was measured by absorbance at 280 nm. […] The Neprilysin enzymatic activity is determined in a fluorescence resonance energy transfer (FRET) assay. […] Following addition of all components to wells, plate was immediately placed into a fluorescent plate reader (Ascent) and signal was recorded for every minute for 20 minutes at the excitation 340 nm and emission 405 nm. The activity of enzyme was evaluated by calculating the velocity of reaction-Slope coefficient=Σ ΔRFU/Δt. […]"}, "[3]": {"tested_on": "amyloid β peptide1-42 (Aβ42)", "assay": "Degradation of Aβ1-42 in guinea pig plasma by neprilysin", "format": "biochemical", "details": "5 μg/ml neprilysin, 0-360 minutes at 37° C.", "experimental": "as §1"}, "amyloid β peptide": {"tested_on": "amyloid β peptide", "assay": "Two-compartment membrane experiment, degradation of amyloid β peptide", "format": "biochemical", "details": "degradation in one compartment connected through a membrane", "experimental": "An experiment is performed to investigate the possibility to remove amyloid β peptide from one compartment by degradation in another compartment connected through a membrane. A similar experiment was conducted using an antibody as an amyloid β peptide agent. The experiment is described by DeMattos et al., (PNAS, 2001). By degrading the amyloid β peptide with neprilysin and/or NEP-Fc in one compartment the concentration of amyloid β peptide in the other compartment is decreased. Importantly, neprilysin or NEP-Fc cannot cross the membrane due to its high molecular weight (161.000 Da and 211.000 Da, respectively)."}}}
{"molecule": "B1", "values": [{"measurement": "Sites at which amyloid β peptide is cleaved in vitro", "setting": "Ab1-42", "value": "five sites"}, {"measurement": "Degradation of Aβ1-40 versus dose", "setting": "[1]; 0-20 μg/ml neprilysin, 210 minutes at 37° C.", "value": "dose dependent manner"}, {"measurement": "Degradation of Aβ1-40 over time", "setting": "[1]; 5 μg/ml neprilysin, 0-360 minutes at 37° C.", "value": "time-dependent manner"}, {"measurement": "Amyloid β1-40 peptide degraded", "setting": "amyloid β1-40 peptide", "value": 88, "unit": "%"}, {"measurement": "Activity of purified protein with versus without added zinc", "setting": "[2]", "value": "no difference in activity"}, {"measurement": "Degradation of Aβ1-42 over time", "setting": "[3]", "value": "time-dependent manner"}, {"measurement": "Concentration of amyloid β peptide in the other compartment", "setting": "amyloid β peptide", "value": "decreased"}]}
